Data published in patent publication US20030157712A1, “Methods for determining cell responses through EphB receptors” (priority 1997, published 2003).

Assays:
[1] = tested on: Grb2 and Grb10 and Nck recruitment to EphB1 complexes; test: Recruitment of SH2-containing adapter proteins to EphB1 complexes; assay type: cell-based
Description: Ligand stimulation and immunoprecipitation of endogenous EphB receptors. Primary HRMEC were used at passages 3-6, as described (12). P19 cells were cultured as recommended (ATCC, Rockville, Md.). Ninety min prior to ligand stimulation, cells (2×10^5cells/60 mm dish) were plated on Matrigel-(Collaborative Biomedical Products, Becton Dickinson, Bedford, Mass., as recommended) or fibronectin-coated (29) dishes. Ligand (ephrin-B1/Fc) or control (ORF/Fc) (30) multimers were generated by preincubation with anti-Fc at a fixed ratio of 0.1× the indicated concentrations of Fc fusion proteins [50 ng ml^−1 anti-Fc for 500 ng ml^−1 Fc fusion protein]. If not otherwise indicated, Fc fusion proteins (ephrinB1/Fc or ORF/Fc) were used at 500 ng ml^−1 in the absence or presence of preclustering anti-Fc at 50 ng ml^−1. Cells were incubated with agonists at 37° C. for 10 min, or as described in the figure legends. […] Precipitated proteins were analyzed by immunoblot (15).
It was reasoned that alternative signaling responses mediated through EphB receptors might reflect differential association of additional receptor signaling complex components. […] Accordingly, EphB1 immunoprecipitates were analyzed for LMW-PTP immunoreactivity (11,17).

P19 cells [2] = test: Cell adhesion assay (P19); assay type: cell-based, murine; conditions: fibronectin coated dishes, 90 min
Description: (§1) Cell adhesion assay. Six well plates (Falcon) were coated with thin layers of Matrigel or with 0.5 μg cm^2 fibronectin (29). Growth medium was replaced 48 h before harvest with binding medium, either DMEM (HRMEC) or ∝-MEM (P19) containing 1% bovine albumin. Cells were recovered by trypsinization (HRMEC) or vigorous tituration (P19) and washed three times with binding medium and plated at 1×10^5 cells per well. Ligands were added coincident with plating at concentrations indicated above. After 90 min, unattached cells were dislodged by applying 4 brisk slaps of the plate on a horizontal surface, and the attached cell layer was carefully washed once with PBS containing calcium and magnesium to collect the remaining unattached cells. Attached cells were collected after incubation in Dispase (Collaborative Biomedical Products). Separate fractions were recovered by centrifugation, washed once and trypan blue excluding cells counted visually using a hemocytomer. The ratio of attached to total number of cells recovered were calculated for each of three wells. Data are expressed as mean+/−SEM and are representative of three independent experiments.

HRMEC [3] = test: Endothelial assembly into capillary-like structures (HRMEC); assay type: cell-based, human; conditions: HRMEC on Matrigel, two dimensional in vitro assay, 8 h
Description: Endothelial assembly into capillary-like structures. Twelve well plates (Falcon) were coated with thin layers of Matrigel. HRMEC were plated at a density of 4×10^4 cells/well in DME containing 1% fetal bovine serum. Indicated agonists, control peptides, alone, or in combination with the EphB1/Fc antagonist (1000 ng ml^−1) (FIG. 5) were added at the time of plating. Cells were incubated at 37° C. for 8 h and photographed using phase microscopy (magnification 100×) (Diaphot-TMD, Nikon).

P19 cells [4] = test: P19 attachment to nitrocellulose coated surfaces preadsorbed with ligand and fibronectin; assay type: cell-based, murine; conditions: 500 ng/well ligand with fibronectin 500 ng/well on nitrocellulose, 90 min at 37° C.
Description: Specifically, nitrocellulose coated surfaces were preadsorbed with 500 ng/well of non-denatured ephrin-B1/Fc, either as dimer (LERK-2/Fc) or preclustered multimer (LERK2/FC+anti-Fc) or control protein (anti-Fc, BSA), with fibronectin (500 ng/well). P19 cells were plated and the % attached cells were assayed after a 90 min incubation at 37° C.

HRMEC [5] = test: Cell adhesion assay (HRMEC); assay type: cell-based, human; conditions: 90 min after plating
Description: as §1

EphB1 = biological target: T1, EphB1 (Homo sapiens, UniProt P54762); test: EphB1 immunoprecipitation and phosphotyrosine immunoblot; assay type: cell-based; conditions: endothelial cells on adsorbed ligand
T1 construct: Ligand stimulation and immunoprecipitation of endogenous EphB receptors; endogenous in cells; host or cells: HRMEC (human); P19 (murine teratocarcinoma) in part of the results
T1 sequence (P54762 18-984): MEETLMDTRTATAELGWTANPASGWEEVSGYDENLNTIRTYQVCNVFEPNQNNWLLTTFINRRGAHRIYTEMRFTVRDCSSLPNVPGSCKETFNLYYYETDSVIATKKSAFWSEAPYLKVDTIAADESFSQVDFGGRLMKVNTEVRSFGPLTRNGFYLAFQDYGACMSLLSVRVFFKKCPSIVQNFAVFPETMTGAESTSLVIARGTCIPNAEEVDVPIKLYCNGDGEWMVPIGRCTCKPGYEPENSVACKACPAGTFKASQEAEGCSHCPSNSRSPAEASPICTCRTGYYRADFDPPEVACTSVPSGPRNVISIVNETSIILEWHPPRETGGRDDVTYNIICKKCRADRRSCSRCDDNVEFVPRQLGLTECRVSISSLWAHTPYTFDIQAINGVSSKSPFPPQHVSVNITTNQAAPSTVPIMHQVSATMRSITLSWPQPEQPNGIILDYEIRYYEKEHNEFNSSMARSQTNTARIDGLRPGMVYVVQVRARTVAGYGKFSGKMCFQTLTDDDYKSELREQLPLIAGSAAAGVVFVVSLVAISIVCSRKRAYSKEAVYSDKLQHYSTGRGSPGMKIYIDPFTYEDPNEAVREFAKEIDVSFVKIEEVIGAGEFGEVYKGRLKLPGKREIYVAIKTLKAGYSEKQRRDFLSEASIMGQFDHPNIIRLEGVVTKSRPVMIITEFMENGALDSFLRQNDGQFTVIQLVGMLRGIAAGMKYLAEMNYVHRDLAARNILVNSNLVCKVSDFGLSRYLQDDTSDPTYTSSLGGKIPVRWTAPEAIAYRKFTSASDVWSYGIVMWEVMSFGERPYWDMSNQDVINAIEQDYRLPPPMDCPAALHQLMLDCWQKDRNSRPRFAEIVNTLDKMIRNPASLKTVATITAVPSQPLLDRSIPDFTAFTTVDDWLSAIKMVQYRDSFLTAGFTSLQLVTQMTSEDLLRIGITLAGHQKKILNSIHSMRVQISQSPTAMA

- EphB1 receptor activation at densities greater than 300 ng/cm^2 (EphB1): did not show a decrement
- adsorption densities stimulating EphB1 receptor activation (EphB1; phosphotyrosine immunoblot): greater than 100 ng/cm^2
B1: ephrin-B1/Fc dimers: disulfide-linked immunoglobulin Fc fusion form of ephrin-B1 (protein)
chain: LAKNLEPVSWSSLNPKFLSGKGLVIYPKIGDKLDIICPRAEAGRPYEYYKLYLVRPEQAAACSTVLDPNVLVTCNRPEQEIRFTIKFQEFSPNYMGLEFKKHHDYYITSTSNGSLEGLENREGGVCRTRTMKIIMKVGQDPNAVTPEQLTTSRPSKEADNTVKMATQAPGSRGSLGDSDGKHETVNQEEKSGPGASGGSSGDPDGFFNSK
modifications: left off: a dimerising Fc or GST
- recruitment of Grb2, Grb10 and Nck to EphB1 complexes, dimeric vs multimeric ligand [1]: did not differ
- P19 attachment to fibronectin (P19 cells [2]): modest effect to decrease
- endothelial capillary-like assembly (HRMEC [3]): did not
- attachment of cells in preadsorbed wells (P19 cells [4]): approximately 40%
- HRMEC attachment to Matrigel- and fibronectin-coated surfaces (HRMEC [5]): did not
